Measured values taken from paper PMC11973430, “Rubisco packaging and stoichiometric composition of the native β-carboxysome in Synechococcus elongatus PCC7942” (Plant Physiology, 2024).

Molecular target: T1, Rubisco L8S8 hexadecamer (Form IB ribulose-1,5-bisphosphate carboxylase/oxygenase) of Synechococcus elongatus … (Synechococcus elongatus PCC7942 …, UniProt Q31NB3 1-472; Q31NB2 1-111)
T1 construct: Rubisco large subunit RbcL, Synechococcus elongatus PCC7942, GenBank ABB57456.1; 52.4 kDa; Rubisco small subunit RbcS, Synechococcus elongatus PCC7942, GenBank ABB57457.1; 13.3 kDa; Native holoenzyme imaged inside isolated β-carboxysomes; not separated from the other carboxysome proteins; also called Rubisco complex; Form IB Rubisco; source: endogenous, inside β-carboxysomes purified from Syn7942 …
Experiment: cryo-EM structure; cryoET and subtomogram averaging (emClarity, D4 symmetry) of Rubisco inside isolated native Syn7942 β-carboxysomes (185 carboxysomes) in TEMB buffer (10 mM Tris-HCl pH 8.0, 1 mM EDTA, 10 mM MgCl2, 20 mM NaHCO3); 3.5 Å
Details: partners not purified

T1 sequence (Q31NB2 whole entry, chain 2 of 2, other chains not shown): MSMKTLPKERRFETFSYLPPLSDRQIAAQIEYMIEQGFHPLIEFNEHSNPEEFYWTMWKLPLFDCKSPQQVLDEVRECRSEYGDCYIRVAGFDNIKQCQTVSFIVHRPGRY

stoichiometry N: 4 CcmM SSUL domains per Rubisco L8S8
B1: Carboxysome scaffolding (linker) protein CcmM of Synechococcus elongatus PCC7942 (natural protein, UniProt Q03513-2 1-324, looked up)
chain: MSAYNGQGRLSSEVITQVRSLLNQGYRIGTEHADKRRFRTSSWQPCAPIQSTNERQVLSELENCLSEHEGEYVRLLGIDTNTRSRVFEALIQRPDGSVPESLGSQPVAVASGGGRQSSYASVSGNLSAEVVNKVRNLLAQGYRIGTEHADKRRFRTSSWQSCAPIQSSNERQVLAELENCLSEHEGEYVRLLGIDTASRSRVFEALIQDPQGPVGSAKAAAAPVSSATPSSHSYTSNGSSSSDVAGQVRGLLAQGYRISAEVADKRRFQTSSWQSLPALSGQSEATVLPALESILQEHKGKYVRLIGIDPAARRRVAELLIQKP
notes: CcmM, Synechococcus elongatus PCC7942, GenBank AAA27306.1; present in the native β-carboxysome as two isoforms, the full-length 58-kDa CcmM58 and the 35-kDa truncated CcmM35 (three SSUL domains each); Mixture of CcmM35 and CcmM58 in the native carboxysome; also called CcmM35; CcmM58; source: endogenous, inside β-carboxysomes purified from Syn7942 (sucrose gradient ultracentrifugation)
